Results reported in patent US9988424 (DUKE UNIVERSITY, dated 2018).
Residue numbers refer to the chain shown, from its start. Like-named read-outs stand apart in the source and are kept apart here.

Columns and labels:
Test in all cases: ELISA, OD405 at 10 ug/ml
[1] = target: T1, A.9004SS V1/V2 tags
T1 V1V2 tags construct: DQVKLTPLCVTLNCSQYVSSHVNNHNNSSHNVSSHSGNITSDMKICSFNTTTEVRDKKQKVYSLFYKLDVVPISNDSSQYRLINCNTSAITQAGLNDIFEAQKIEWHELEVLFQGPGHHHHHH

[2] = target: AE.con gp140CF
[3] = target: B.040 gp140C
[4] = target: T2, B.62357 gp140C
T2 construct: also called B.62357 140C

[5] = target: B.con gp140CF
[6] = target: T3, C.1086 gp140
T3 construct: also called C.1086gp140C

[7] = target: Con 6 gp120
[8] = target: G.con gp140CF
[9] = target: C.CAP206 gp140CF.12 (HIV-1)
[10] = target: T4, gp70 B.CaseA2 V1/V2 (HIV-1 V1V2 on murine leukemia virus gp70)
T4 construct: also called B.gp70CaseA2 V1/V2; gp70 B.CaseAV1V2
T4 chain: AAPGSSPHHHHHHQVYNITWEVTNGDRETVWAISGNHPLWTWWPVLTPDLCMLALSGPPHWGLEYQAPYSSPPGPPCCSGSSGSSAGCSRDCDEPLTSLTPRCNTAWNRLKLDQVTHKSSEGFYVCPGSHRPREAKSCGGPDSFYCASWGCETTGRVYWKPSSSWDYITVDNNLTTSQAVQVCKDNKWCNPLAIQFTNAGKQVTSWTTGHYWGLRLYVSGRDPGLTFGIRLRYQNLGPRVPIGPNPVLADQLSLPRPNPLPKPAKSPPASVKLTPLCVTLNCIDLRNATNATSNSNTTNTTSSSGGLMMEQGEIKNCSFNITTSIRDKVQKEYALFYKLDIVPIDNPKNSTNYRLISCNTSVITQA

[11] = target: T5, gp70 C.1086 V1/V2 (HIV-1 V1V2 on murine leukemia virus gp70)
T5 construct: also called C.gp70 1086C V1V2; C.1086gp70V1V2
T5 chain: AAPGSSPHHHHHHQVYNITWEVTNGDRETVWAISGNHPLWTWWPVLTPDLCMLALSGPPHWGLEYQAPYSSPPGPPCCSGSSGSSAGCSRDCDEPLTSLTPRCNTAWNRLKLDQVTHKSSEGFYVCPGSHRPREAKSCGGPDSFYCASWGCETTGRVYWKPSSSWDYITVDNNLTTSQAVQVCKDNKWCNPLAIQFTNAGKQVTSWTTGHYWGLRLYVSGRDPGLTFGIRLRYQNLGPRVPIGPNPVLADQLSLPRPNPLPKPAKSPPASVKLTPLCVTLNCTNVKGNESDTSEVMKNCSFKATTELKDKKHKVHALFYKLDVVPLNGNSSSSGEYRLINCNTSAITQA

[12] = target: T6, AE.97CNG2XF gp140CF (HIV-1)
T6 construct: also called E.97CNGX2F gp140CF

[13] = target: T7, B.HXB/BAL gp140CFI (HIV-1, UniProt P04578 33-680)
T7 construct: also called B.HxB/Ba gp140 CFI

[14] = target: B.9021 gp140C (HIV-1)
[15] = target: T8, SIV CPZ US-1 gp140CF (SIVcpz)
T8 construct: also called US-1 SIVCPZ gp140CF
T8 chain: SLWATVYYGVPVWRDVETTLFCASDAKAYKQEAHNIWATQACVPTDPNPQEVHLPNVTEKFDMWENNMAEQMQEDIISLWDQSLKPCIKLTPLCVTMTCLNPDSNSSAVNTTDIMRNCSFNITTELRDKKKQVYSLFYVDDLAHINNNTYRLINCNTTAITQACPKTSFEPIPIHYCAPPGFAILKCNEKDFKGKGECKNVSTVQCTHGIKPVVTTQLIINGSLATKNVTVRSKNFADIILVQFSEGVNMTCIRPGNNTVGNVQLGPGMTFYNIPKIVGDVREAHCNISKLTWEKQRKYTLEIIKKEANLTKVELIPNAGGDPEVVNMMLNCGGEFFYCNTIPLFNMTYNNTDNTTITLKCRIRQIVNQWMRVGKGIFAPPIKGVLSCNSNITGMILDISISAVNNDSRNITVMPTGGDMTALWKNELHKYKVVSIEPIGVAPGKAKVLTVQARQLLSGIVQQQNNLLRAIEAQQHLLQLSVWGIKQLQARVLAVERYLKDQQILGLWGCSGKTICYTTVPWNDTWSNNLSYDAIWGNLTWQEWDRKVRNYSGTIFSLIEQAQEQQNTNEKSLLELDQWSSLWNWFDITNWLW

[16] = target: T1, A.9004SS V1/V2 tags
[17] = target: AE.con gp140CF; remark: listed apart in the source
[18] = target: B.040 gp140C; remark: listed apart in the source
[19] = target: T2, B.62357 gp140C; remark: listed apart in the source
[20] = target: B.con gp140CF; remark: listed apart in the source
[21] = target: T3, C.1086 gp140; remark: listed apart in the source
[22] = target: Con 6 gp120; remark: listed apart in the source
[23] = target: G.con gp140CF; remark: listed apart in the source
[24] = target: C.CAP206 gp140CF.12 (HIV-1); remark: listed apart in the source
[25] = target: T4, gp70 B.CaseA2 V1/V2
[26] = target: T5, gp70 C.1086 V1/V2
[27] = target: T6, AE.97CNG2XF gp140CF; remark: listed apart in the source
[28] = target: T7, B.HXB/BAL gp140CFI; remark: listed apart in the source
[29] = target: T8, SIV CPZ US-1 gp140CF

Measured: binding result

B1: CH01_UA1 (antibody, V domains shown)
VH: EVQLVESGGGVVRPGGSLRLSCAASGFTFDDYGMSWVRQAPGKGLEWVSGINWNGGSTGYADSVKGRFTISRDNAKNSLYLQMNSLRAEDTALYYCARGTDYTIDDQGIRYQGSGTFWYFDLWGRGTLVTVSS
VL: not shown
no binding (tested: 10 ug/ml): [1] | [2] | [3] | [4] | [5] | [6] | [7] | [8] | [9] | [10] | [11] | [12] | [13] | [14] | [15]

B2: CH01_UA2 (antibody, V domains shown)
VH: B1 VH with R110L
VL: not shown
no binding (tested: 10 ug/ml): [16] | [17] | [18] | [19] | [20] | [21] | [22] | [23] | [24] | [25] | [26] | [27] | [28] | [29]
